Reference: JP2004097211A (dated 2004)

T1: CDR1抗原ペプチド
T1 peptide: RSSKSLLYSNGNTYLY


What was measured:
[1] = target: ヘリコバクターピロリ菌のウレーアゼ (ヘリコバクターピロリ菌 (Helicobacter pylori)) (UniProt P14916); test: cell-based or functional assay
[2] = target: T1, CDR1抗原ペプチド; test: cell-based or functional assay

Binder	タンパク質分解実験 (SDS-PAGE, 1 h): decrease of the β subunit band against the control [1]	回転数(kcat) [2]	触媒効率(kcat/Km) [2]
HpU−20抗体のL鎖 (protein, cysteines reduced with b-mercaptoethanol and alkylated with iodoacetamide (positions not stated)) VL: DVLMTQTPLSLPISLGDQASISCRSSQSIVQSNGNTYLEWYVQKPGQSPKLLIYKVSNRFSGVPDRFSGSGSGTDFTFKISRVEAEDLGVYYCIQGSHVPLTFGAGTKLELKRA	26.7%	–	–
i41SL1−2抗体の重鎖 (other, cysteines reduced with b-mercaptoethanol and alkylated with iodoacetamide (positions not stated)) VH: QVQLQHSGAELVRPGSSVKVSCKALGYTSTDYEIHWVKQTPVRGLEWIGAIHPGSDVIVYNQKFKGTATLTADKSSSTAYMELRSLTSEDSAVYYCTREGGSVDYVWGQGTLVTVSA	–	~0.005 fold of trypsin (trypsin measured on another synthetic peptide)	~0.1 fold of trypsin (trypsin measured on another synthetic peptide)
i41SL1−2抗体の軽鎖 (other, cysteines reduced with b-mercaptoethanol and alkylated with iodoacetamide (positions not stated)) VL: DIVMTQTQLTLTINIGQPASISCKSSQSLLDSDGKTYLNWLFQRPGQSPKRLIYLVSKLDSGVPDRFTGSGSGTDFTLKISRVEAEDLGVYYCWQGTHFPLTFGAGTKLELRRA	–	~0.005 fold of trypsin (trypsin measured on another synthetic peptide)	–
